Data on five molecules can be found in article PMC11708034.

Broadly, the stoichiometry N is the number of molecules, sites or subunits per partner or assembly. One may read the Kd as the equilibrium constant for the complex coming apart. A high value points to lower affinity. In general, kon refers to the rate constant with which the complex forms.

Test [1] deals with CDTb heptamer (Clostridioides difficile) (UniProt O32739). As to the kind of experiment: cryo-EM structure.
The target of test [2] is biotinylated CDTb oligomers (Clostridioides difficile) (UniProt O32739). As to the kind of experiment: BLI; biotinylated CDTb oligomers saturated on streptavidin biosensors (Octet Red 96e); CDTa 200 to 0.032 nM in solution; 20 mM HEPES pH 8.0, 100 mM NaCl, blocked with 0.01% Igepal CA-630 and 0.1% BSA; 5 min association, 10 min dissociation; kON from the slope of kobs against concentration, KD from the signal at equilibrium (sigmoidal dose-response fit).

Test [3] has the same target. As to the kind of experiment: BLI; […]; 20 mM HEPES pH 8.0, 100 mM NaCl, […]; 5 min association, 10 min dissociation; […]. For orientation: In BLI a coated tip is dipped into the sample, and binding shifts an interference pattern.

For “CDTb heptamer (from UniProt O32739 45-876) (complex)”, the stoichiometry N in test [1] was determined as 7.

B1: CDTa_(40-463) (domain or fragment)
chain: YSEKVCNTTYKAPIERPEDFLKDKEKAKEWERKEAERIEQKLERSEKEALESYKKDSVEISKYSQTRNYFYDYQIEANSREKEYKELRNAISKNKIDKPMYVYYFESPEKFAFNKVIRTENQNEISLEKFNEFKETIQNKLFKQDGFKDISLYEPGKGDEKPTPLLMHLKLPRNTGMLPYTNTNNVSTLIEQGYSIKIDKIVRIVIDGKHYIKAEASVVSSLDFKDDVSKGDSWGKANYNDWSNKLTPNELADVNDYMRGGYTAINNYLISNGPVNNPNPELDSKITNIENALKREPIPTNLTVYRRSGPQEFGLTLTSPEYDFNKLENIDAFKSKWEGQALSYPNFISTSIGSVNMSAFAKRKIVLRITIPKGSPGAYLSAIPGYAGEYEVLLNHGSKFKINKIDSYKDGTITKLIVDATLIP
Take B1: in test [2], the Kd came out at 9 nM and the kon worked out at 1.2e+06 M⁻¹ s⁻¹.

B2: CDTa_(67-463) (domain or fragment)
chain: KEWERKEAERIEQKLERSEKEALESYKKDSVEISKYSQTRNYFYDYQIEANSREKEYKELRNAISKNKIDKPMYVYYFESPEKFAFNKVIRTENQNEISLEKFNEFKETIQNKLFKQDGFKDISLYEPGKGDEKPTPLLMHLKLPRNTGMLPYTNTNNVSTLIEQGYSIKIDKIVRIVIDGKHYIKAEASVVSSLDFKDDVSKGDSWGKANYNDWSNKLTPNELADVNDYMRGGYTAINNYLISNGPVNNPNPELDSKITNIENALKREPIPTNLTVYRRSGPQEFGLTLTSPEYDFNKLENIDAFKSKWEGQALSYPNFISTSIGSVNMSAFAKRKIVLRITIPKGSPGAYLSAIPGYAGEYEVLLNHGSKFKINKIDSYKDGTITKLIVDATLIP
B2: in test [3], the Kd was 18.5 nM and the kon was found to be 400000 M⁻¹ s⁻¹.

B3: CDTa_(50-463) (domain or fragment)
chain: KAPIERPEDFLKDKEKAKEWERKEAERIEQKLERSEKEALESYKKDSVEISKYSQTRNYFYDYQIEANSREKEYKELRNAISKNKIDKPMYVYYFESPEKFAFNKVIRTENQNEISLEKFNEFKETIQNKLFKQDGFKDISLYEPGKGDEKPTPLLMHLKLPRNTGMLPYTNTNNVSTLIEQGYSIKIDKIVRIVIDGKHYIKAEASVVSSLDFKDDVSKGDSWGKANYNDWSNKLTPNELADVNDYMRGGYTAINNYLISNGPVNNPNPELDSKITNIENALKREPIPTNLTVYRRSGPQEFGLTLTSPEYDFNKLENIDAFKSKWEGQALSYPNFISTSIGSVNMSAFAKRKIVLRITIPKGSPGAYLSAIPGYAGEYEVLLNHGSKFKINKIDSYKDGTITKLIVDATLIP
As to B3, in test [3], the Kd was determined as 5.7 nM and the on-rate (kon) turned out to be 1.4e+06 M⁻¹ s⁻¹.

B4: CDTa_(60-463) (domain or fragment)
chain: LKDKEKAKEWERKEAERIEQKLERSEKEALESYKKDSVEISKYSQTRNYFYDYQIEANSREKEYKELRNAISKNKIDKPMYVYYFESPEKFAFNKVIRTENQNEISLEKFNEFKETIQNKLFKQDGFKDISLYEPGKGDEKPTPLLMHLKLPRNTGMLPYTNTNNVSTLIEQGYSIKIDKIVRIVIDGKHYIKAEASVVSSLDFKDDVSKGDSWGKANYNDWSNKLTPNELADVNDYMRGGYTAINNYLISNGPVNNPNPELDSKITNIENALKREPIPTNLTVYRRSGPQEFGLTLTSPEYDFNKLENIDAFKSKWEGQALSYPNFISTSIGSVNMSAFAKRKIVLRITIPKGSPGAYLSAIPGYAGEYEVLLNHGSKFKINKIDSYKDGTITKLIVDATLIP
For B4, in test [2], the dissociation constant (Kd) was determined as 9.5 nM and the kon was determined as 800000 M⁻¹ s⁻¹.
